Measurements taken from patent US12630600B2 (MEDIMMUNE LIMITED, priority 2022, dated 2026).
Starred links: 1 amine or outer side, 2 acyl side, 3 side chain; linkers in the order of their positions; H or OH if unused. Non-standard residues stand in square brackets, D forms with d. Groups on a side chain read outwards from the residue. No end group written: not given here. *: point of attachment. C20 diacid = O=C(O)CCCCCCCCCCCCCCCCCCC(=O)*; C18 diacid = O=C(O)CCCCCCCCCCCCCCCCC(=O)*; γGlu = O=C(O)[C@H](CCC(=O)[*:2])N[*:1]; αMeF = C[C@](N)(Cc1ccccc1)C(=O)O; AEEA = NCCOCCOCC(=O)O; Aib = CC(C)(N)C(=O)O

Assays:
human GLP-1 receptor = human GLP-1 receptor (human, UniProt P43220); test: cell-based or functional assay
human glucagon receptor = human glucagon receptor (human, UniProt P47871); test: cell-based or functional assay

Row | Binder | cAMP production EC50 (human GLP-1 receptor) | cAMP production EC50 (human glucagon receptor)
1 | H[Aib]QGTFTSDVSK[αMeF]LDTK([AEEA-AEEA-γGlu-C18 diacid])RARDFVQWLLR[Aib]A-OH (N-terminus assumed; SMILES CC(C)C[C@H](NC(=O)[C@H](Cc1c[nH]c2ccccc12)NC(=O)[C@H](CCC(N)=O)NC(=O)[C@@H](NC(=O)[C@H](Cc1ccccc1)NC(=O)[C@H](CC(=O)O)NC(=O)[C@H](CCCNC(=N)N)NC(=O)[C@H](C)NC(=O)[C@H](CCCNC(=N)N)NC(=O)[C@H](CCCCNC(=O)COCCOCCNC(=O)COCCOCCNC(=O)CC[C@H](NC(=O)CCCCCCCCCCCCCCCCC(=O)O)C(=O)O)NC(=O)[C@@H](NC(=O)[C@H](CC(=O)O)NC(=O)[C@H](CC(C)C)NC(=O)[C@](C)(Cc1ccccc1)NC(=O)[C@H](CCCCN)NC(=O)[C@H](CO)NC(=O)[C@@H](NC(=O)[C@H](CC(=O)O)NC(=O)[C@H](CO)NC(=O)[C@@H](NC(=O)[C@H](Cc1ccccc1)NC(=O)[C@@H](NC(=O)CNC(=O)[C@H](CCC(N)=O)NC(=O)C(C)(C)NC(=O)[C@@H](N)Cc1c[nH]cn1)[C@@H](C)O)[C@@H](C)O)C(C)C)[C@@H](C)O)C(C)C)C(=O)N[C@@H](CC(C)C)C(=O)N[C@@H](CCCNC(=N)N)C(=O)NC(C)(C)C(=O)N[C@@H](C)C(=O)O) [Peptide 501] | 0.0265 nM | 0.0756 nM
2 | H[Aib]QGTFTSDVSK[αMeF]LDTK([AEEA-AEEA-γGlu-C18 diacid])RAQDFVQWLLR[Aib]A-OH (N-terminus assumed; SMILES CC(C)C[C@H](NC(=O)[C@H](Cc1c[nH]c2ccccc12)NC(=O)[C@H](CCC(N)=O)NC(=O)[C@@H](NC(=O)[C@H](Cc1ccccc1)NC(=O)[C@H](CC(=O)O)NC(=O)[C@H](CCC(N)=O)NC(=O)[C@H](C)NC(=O)[C@H](CCCNC(=N)N)NC(=O)[C@H](CCCCNC(=O)COCCOCCNC(=O)COCCOCCNC(=O)CC[C@H](NC(=O)CCCCCCCCCCCCCCCCC(=O)O)C(=O)O)NC(=O)[C@@H](NC(=O)[C@H](CC(=O)O)NC(=O)[C@H](CC(C)C)NC(=O)[C@](C)(Cc1ccccc1)NC(=O)[C@H](CCCCN)NC(=O)[C@H](CO)NC(=O)[C@@H](NC(=O)[C@H](CC(=O)O)NC(=O)[C@H](CO)NC(=O)[C@@H](NC(=O)[C@H](Cc1ccccc1)NC(=O)[C@@H](NC(=O)CNC(=O)[C@H](CCC(N)=O)NC(=O)C(C)(C)NC(=O)[C@@H](N)Cc1c[nH]cn1)[C@@H](C)O)[C@@H](C)O)C(C)C)[C@@H](C)O)C(C)C)C(=O)N[C@@H](CC(C)C)C(=O)N[C@@H](CCCNC(=N)N)C(=O)NC(C)(C)C(=O)N[C@@H](C)C(=O)O) [Peptide 499] | 0.0406 nM | 0.0788 nM
3 | H[Aib]QGTFTSDVSK[αMeF]LDTK([AEEA-AEEA-γGlu-C20 diacid])RAQDFVRWLLR[Aib]A-OH (N-terminus assumed; SMILES CC(C)C[C@H](NC(=O)[C@H](Cc1c[nH]c2ccccc12)NC(=O)[C@H](CCCNC(=N)N)NC(=O)[C@@H](NC(=O)[C@H](Cc1ccccc1)NC(=O)[C@H](CC(=O)O)NC(=O)[C@H](CCC(N)=O)NC(=O)[C@H](C)NC(=O)[C@H](CCCNC(=N)N)NC(=O)[C@H](CCCCNC(=O)COCCOCCNC(=O)COCCOCCNC(=O)CC[C@H](NC(=O)CCCCCCCCCCCCCCCCCCC(=O)O)C(=O)O)NC(=O)[C@@H](NC(=O)[C@H](CC(=O)O)NC(=O)[C@H](CC(C)C)NC(=O)[C@](C)(Cc1ccccc1)NC(=O)[C@H](CCCCN)NC(=O)[C@H](CO)NC(=O)[C@@H](NC(=O)[C@H](CC(=O)O)NC(=O)[C@H](CO)NC(=O)[C@@H](NC(=O)[C@H](Cc1ccccc1)NC(=O)[C@@H](NC(=O)CNC(=O)[C@H](CCC(N)=O)NC(=O)C(C)(C)NC(=O)[C@@H](N)Cc1c[nH]cn1)[C@@H](C)O)[C@@H](C)O)C(C)C)[C@@H](C)O)C(C)C)C(=O)N[C@@H](CC(C)C)C(=O)N[C@@H](CCCNC(=N)N)C(=O)NC(C)(C)C(=O)N[C@@H](C)C(=O)O) [Peptide 498] | 0.156 nM | 0.17 nM
4 | H[Aib]QGTFTSDVSK[αMeF]LDTK([AEEA-AEEA-γGlu-C18 diacid])RAQDFVRWLLR[Aib]A-OH (N-terminus assumed; SMILES CC(C)C[C@H](NC(=O)[C@H](Cc1c[nH]c2ccccc12)NC(=O)[C@H](CCCNC(=N)N)NC(=O)[C@@H](NC(=O)[C@H](Cc1ccccc1)NC(=O)[C@H](CC(=O)O)NC(=O)[C@H](CCC(N)=O)NC(=O)[C@H](C)NC(=O)[C@H](CCCNC(=N)N)NC(=O)[C@H](CCCCNC(=O)COCCOCCNC(=O)COCCOCCNC(=O)CC[C@H](NC(=O)CCCCCCCCCCCCCCCCC(=O)O)C(=O)O)NC(=O)[C@@H](NC(=O)[C@H](CC(=O)O)NC(=O)[C@H](CC(C)C)NC(=O)[C@](C)(Cc1ccccc1)NC(=O)[C@H](CCCCN)NC(=O)[C@H](CO)NC(=O)[C@@H](NC(=O)[C@H](CC(=O)O)NC(=O)[C@H](CO)NC(=O)[C@@H](NC(=O)[C@H](Cc1ccccc1)NC(=O)[C@@H](NC(=O)CNC(=O)[C@H](CCC(N)=O)NC(=O)C(C)(C)NC(=O)[C@@H](N)Cc1c[nH]cn1)[C@@H](C)O)[C@@H](C)O)C(C)C)[C@@H](C)O)C(C)C)C(=O)N[C@@H](CC(C)C)C(=O)N[C@@H](CCCNC(=N)N)C(=O)NC(C)(C)C(=O)N[C@@H](C)C(=O)O) [Peptide 497] | 0.0374 nM | 0.118 nM

The next lines start with the values.

Row | cAMP production EC50 (human GLP-1 receptor) | cAMP production EC50 (human glucagon receptor) | Binder
5 | 0.0821 nM | 0.175 nM | H[Aib]QGTFTSDVSK[αMeF]LDTK([AEEA-AEEA-γGlu-C20 diacid])RARDFVQWLLR[Aib]A-OH (N-terminus assumed; SMILES CC(C)C[C@H](NC(=O)[C@H](Cc1c[nH]c2ccccc12)NC(=O)[C@H](CCC(N)=O)NC(=O)[C@@H](NC(=O)[C@H](Cc1ccccc1)NC(=O)[C@H](CC(=O)O)NC(=O)[C@H](CCCNC(=N)N)NC(=O)[C@H](C)NC(=O)[C@H](CCCNC(=N)N)NC(=O)[C@H](CCCCNC(=O)COCCOCCNC(=O)COCCOCCNC(=O)CC[C@H](NC(=O)CCCCCCCCCCCCCCCCCCC(=O)O)C(=O)O)NC(=O)[C@@H](NC(=O)[C@H](CC(=O)O)NC(=O)[C@H](CC(C)C)NC(=O)[C@](C)(Cc1ccccc1)NC(=O)[C@H](CCCCN)NC(=O)[C@H](CO)NC(=O)[C@@H](NC(=O)[C@H](CC(=O)O)NC(=O)[C@H](CO)NC(=O)[C@@H](NC(=O)[C@H](Cc1ccccc1)NC(=O)[C@@H](NC(=O)CNC(=O)[C@H](CCC(N)=O)NC(=O)C(C)(C)NC(=O)[C@@H](N)Cc1c[nH]cn1)[C@@H](C)O)[C@@H](C)O)C(C)C)[C@@H](C)O)C(C)C)C(=O)N[C@@H](CC(C)C)C(=O)N[C@@H](CCCNC(=N)N)C(=O)NC(C)(C)C(=O)N[C@@H](C)C(=O)O) [Peptide 502]
6 | 0.0812 nM | 0.0849 nM | H[Aib]QGTFTSDVSK[αMeF]LDTK([AEEA-AEEA-γGlu-C20 diacid])RAQDFVRWLLE[Aib]K-OH [Peptide 503]
7 | 0.0649 nM | 0.482 nM | H[Aib]QGTFTSDVSK[αMeF]LDTK([AEEA-AEEA-γGlu-C20 diacid])RAQDFVRWLLR[Aib]K-NH2 (N-terminus assumed; SMILES CC(C)C[C@H](NC(=O)[C@H](Cc1c[nH]c2ccccc12)NC(=O)[C@H](CCCNC(=N)N)NC(=O)[C@@H](NC(=O)[C@H](Cc1ccccc1)NC(=O)[C@H](CC(=O)O)NC(=O)[C@H](CCC(N)=O)NC(=O)[C@H](C)NC(=O)[C@H](CCCNC(=N)N)NC(=O)[C@H](CCCCNC(=O)COCCOCCNC(=O)COCCOCCNC(=O)CC[C@H](NC(=O)CCCCCCCCCCCCCCCCCCC(=O)O)C(=O)O)NC(=O)[C@@H](NC(=O)[C@H](CC(=O)O)NC(=O)[C@H](CC(C)C)NC(=O)[C@](C)(Cc1ccccc1)NC(=O)[C@H](CCCCN)NC(=O)[C@H](CO)NC(=O)[C@@H](NC(=O)[C@H](CC(=O)O)NC(=O)[C@H](CO)NC(=O)[C@@H](NC(=O)[C@H](Cc1ccccc1)NC(=O)[C@@H](NC(=O)CNC(=O)[C@H](CCC(N)=O)NC(=O)C(C)(C)NC(=O)[C@@H](N)Cc1c[nH]cn1)[C@@H](C)O)[C@@H](C)O)C(C)C)[C@@H](C)O)C(C)C)C(=O)N[C@@H](CC(C)C)C(=O)N[C@@H](CCCNC(=N)N)C(=O)NC(C)(C)C(=O)N[C@@H](CCCCN)C(N)=O) [Peptide 496]
8 | 0.102 nM | 0.101 nM | H[Aib]QGTFTSDVSK[αMeF]LDTK([AEEA-AEEA-γGlu-C20 diacid])RAQDFVQWLLR[Aib]A-OH (N-terminus assumed; SMILES CC(C)C[C@H](NC(=O)[C@H](Cc1c[nH]c2ccccc12)NC(=O)[C@H](CCC(N)=O)NC(=O)[C@@H](NC(=O)[C@H](Cc1ccccc1)NC(=O)[C@H](CC(=O)O)NC(=O)[C@H](CCC(N)=O)NC(=O)[C@H](C)NC(=O)[C@H](CCCNC(=N)N)NC(=O)[C@H](CCCCNC(=O)COCCOCCNC(=O)COCCOCCNC(=O)CC[C@H](NC(=O)CCCCCCCCCCCCCCCCCCC(=O)O)C(=O)O)NC(=O)[C@@H](NC(=O)[C@H](CC(=O)O)NC(=O)[C@H](CC(C)C)NC(=O)[C@](C)(Cc1ccccc1)NC(=O)[C@H](CCCCN)NC(=O)[C@H](CO)NC(=O)[C@@H](NC(=O)[C@H](CC(=O)O)NC(=O)[C@H](CO)NC(=O)[C@@H](NC(=O)[C@H](Cc1ccccc1)NC(=O)[C@@H](NC(=O)CNC(=O)[C@H](CCC(N)=O)NC(=O)C(C)(C)NC(=O)[C@@H](N)Cc1c[nH]cn1)[C@@H](C)O)[C@@H](C)O)C(C)C)[C@@H](C)O)C(C)C)C(=O)N[C@@H](CC(C)C)C(=O)N[C@@H](CCCNC(=N)N)C(=O)NC(C)(C)C(=O)N[C@@H](C)C(=O)O) [Peptide 500]
